Data: patent US20220235344A1, “TRYPSIN VARIANTS WITH IMPROVED ENZYMATIC PROPERTIES” (BIOPHARMA TRANSLATIONSINSTITUT DESSAU FORSCHUNGS GMBH, priority 2018, published 2022)

Test system: Bz-PGGXaaXaaXaaXaaAG-OH (acyl donor) / H-XaaXaaXaaAK(DNP)-OH (acyl acceptor)
Assay: Substrate specificity of variants (FIG. 2, FIG. 4)
Assay type: biochemical
Description: FIG. 2: Substrate specificity data of chosen variants identified during phage-display selection and screening out of Trypsiligase II-library. 100 μM acyl donor (Bz-PGGXaaXaaXaaXaaAG-OH); 200 μM acyl acceptor (H-XaaXaaXaaAK(DNP)-OH); 1-5 μM enzyme variant; 100 mM HEPES pH7.8, 100 mM NaCl, 10 mM CaCl2, 0.1 mM ZnCl2, T=30° C. UPLC analysis: Waters Acquity Ultra Performance LC, C18-column, gradient 5-60% acetonitrile, 5 min, detection at 360 nm; (k_(cat,AL)^app): apparent turnover rate for the aminolysis reaction. Amino acid variation of acyl donor/acyl acceptor pairs at Xaa-positions are indicated at the y-axis, e.g. YRAH relates to the acyl donor Bz-[…]-OH with the corresponding acyl acceptor H-RAHAK(DNP)-OH.
FIG. 4: Substrate specificity data of chosen variants identified during phage-display selection and screening out of Trypsiligase II-library. […]
Model transamidation reactions were performed in a solution containing 15 to 250 μM acyl donor, 2 eq. of the corresponding acyl acceptor, varying concentrations of trypsin variant, 100 mM HEPES/NaOH pH 7.8, ±0.1 mM ZnC12, 100 mM NaCl, 10 mM CaCl2) at 30° C. […] The composition of the reaction mixture was analyzed by UPCL with method I or II, depending on the absence (method 1) or presence (method II) of a 2,4-dinitrophenyl group within the acyl acceptor (see example 1). […]

B1: A2C8: Trypsiligase II + H40F, A55A, R96E, K97D, L99F, N143E, E151Y, S190V, Q192A, S214G, G219Q, A221T (protein)
chain: IVGGYTCQENSVPYQVSLNSGHFFCGGSLINDQWVVSAAHCHESRIQVRLGEHNINVLEGNEQFVNAAKIIKHPNFDEDTFNNDIMLIKLSSPVKLNARVATVALPSSCAPAGTQCLISGWGETLSSGVNYPDLLQCLDAPLLPQADCEASYPGKITDNMVCVGFLEGGKKVCAGDSGGPVVCNGELQGIVGWGYQCTLPDNPGVYTKVCNYVDWIQDTIAAN
acceptance of LRKH as acyl donor: accepts LRKH as acyl donor | substrate sequence with highest activity: highest activity for YRKK substrate sequence
